Test results: patent US20230002480A1

How the values were obtained:
Test in all cases: cell-based or functional assay
[1] = biological target: HIV-1 Env of pseudovirus BJOX028000.10.3 (clade CRF01_AE (T/F)) (HIV-1)
[2] = biological target: HIV-1 Env of pseudovirus P0402_c2_11 (clade G) (HIV-1)
[3] = biological target: HIV-1 Env of pseudovirus BJOX009000.02.4 (clade CRF01_AE) (HIV-1)
[4] = biological target: HIV-1 Env of pseudovirus 211-9 (clade CRF02_AG) (HIV-1)
[5] = biological target: HIV-1 Env of pseudovirus T255-34 (clade CRF02_AG) (HIV-1)
[6] = biological target: HIV-1 Env pseudovirus R2184.c04 (HIV-1)
[7] = biological target: HIV-1 Env pseudovirus X1193_c1 (HIV-1)
[8] = biological target: HIV-1 Env pseudovirus 263-8 (HIV-1)
[9] = biological target: HIV-1 Env pseudovirus C1080.c03 (HIV-1)
[10] = biological target: HIV-1 Env pseudovirus T255-34 (HIV-1)
[11] = biological target: HIV-1 Env pseudovirus BJOX009000.02.4 (HIV-1)
[12] = biological target: HIV-1 Env pseudovirus 231966.c02 (HIV-1)
[13] = biological target: HIV-1 Env pseudovirus 3817.v2.c59 (HIV-1)
[14] = biological target: HIV-1 Env pseudovirus X1254_c3 (HIV-1)
[15] = biological target: HIV-1 Env pseudovirus C4118.c09 (HIV-1)
[16] = biological target: HIV-1 Env pseudovirus 211-9 (HIV-1)
[17] = biological target: HIV-1 Env of pseudovirus ZM247v1(Rev-) (clade C (T/F)) (HIV-1)
[18] = biological target: HIV-1 Env of pseudovirus ZM135M.PL10a (clade C) (HIV-1)
[19] = biological target: HIV-1 Env of pseudovirus PVO.4 (clade B) (HIV-1)
[20] = biological target: HIV-1 Env of pseudovirus CNE21 (clade BC) (HIV-1)
[21] = biological target: HIV-1 Env of pseudovirus CNE19 (clade BC) (HIV-1)
[22] = biological target: HIV-1 Env of pseudovirus 246F C1G (clade C (T/F)) (HIV-1)
[23] = biological target: HIV-1 Env of pseudovirus CNE20 (clade BC) (HIV-1)
[24] = biological target: HIV-1 Env of pseudovirus CNE52 (clade BC) (HIV-1)
[25] = biological target: HIV-1 Env of pseudovirus BF1266.431a (clade C (T/F)) (HIV-1)
[26] = biological target: HIV-1 Env of pseudovirus Ce1172_H1 (clade C (T/F)) (HIV-1)
[27] = biological target: HIV-1 Env of pseudovirus 6244_13_B5_4576 (clade B (T/F)) (HIV-1)
[28] = biological target: HIV-1 Env of pseudovirus Ce0393_C3 (clade C (T/F)) (HIV-1)
[29] = biological target: HIV-1 Env of pseudovirus ZM233M.PB6 (clade C) (HIV-1)
[30] = biological target: HIV-1 Env of pseudovirus HIV-001428-2.42 (clade C) (HIV-1)
[31] = biological target: HIV-1 Env of pseudovirus 1394C9G1(Rev-) (clade C (T/F)) (HIV-1)
[32] = biological target: HIV-1 Env of pseudovirus Ce2010_F5 (clade C (T/F)) (HIV-1)

## PG16 (antibody)
[1]
  IC50, titer in TZM.bl cells: > 50 µg/mL
  IC80, titer in TZM.bl cells: > 50 µg/mL
[2]
  IC50, titer in TZM.bl cells: 0.025 µg/mL
  IC80, titer in TZM.bl cells: 0.411 µg/mL
[3]
  IC50, titer in TZM.bl cells: 1.19 µg/mL
  IC80, titer in TZM.bl cells: 22.1 µg/mL
[4]
  IC50, titer in TZM.bl cells: 0.029 µg/mL
  IC80, titer in TZM.bl cells: 0.144 µg/mL
[5]
  IC50, titer in TZM.bl cells: 0.024 µg/mL
  IC80, titer in TZM.bl cells: 0.125 µg/mL

## N49P9.1 (antibody)
[6]
  IC50: 0.019 µg/mL
  IC80: 0.057 µg/mL
  MPI: 100
[7]
  IC50: 0.042 µg/mL
  IC80: 0.15 µg/mL
  MPI: 100
[8]
  IC50: 0.049 µg/mL
  IC80: 0.17 µg/mL
  MPI: 100
[9]
  IC50: 0.156 µg/mL
  IC80: 0.939 µg/mL
  MPI: 100
[10]
  IC50: 0.092 µg/mL
  IC80: 0.286 µg/mL
  MPI: 100
[11]
  IC50: 0.965 µg/mL
  IC80: 3.93 µg/mL
  MPI: 100
[12]
  IC50: 0.067 µg/mL
  IC80: 0.237 µg/mL
  MPI: 100
[13]
  IC50: 1.35 µg/mL
  IC80: 8.26 µg/mL
  MPI: 95
[14]
  IC50: 0.101 µg/mL
  IC80: 0.278 µg/mL
  MPI: 100
[15]
  IC50: 0.062 µg/mL
  IC80: 0.218 µg/mL
  MPI: 100
[16]
  IC50: 0.17 µg/mL
  IC80: 0.579 µg/mL
  MPI: 100

## N49P19 (antibody)
[6]
  IC50: 0.132 µg/mL
  IC80: 0.445 µg/mL
  MPI: 100
[7]
  IC50: 0.54 µg/mL
  IC80: 3.15 µg/mL
  MPI: 99
[8]
  IC50: 0.344 µg/mL
  IC80: 1.51 µg/mL
  MPI: 99
[9]
  IC50: 0.682 µg/mL
  IC80: 3.05 µg/mL
  MPI: 100
[10]
  IC50: 0.948 µg/mL
  IC80: 6.22 µg/mL
  MPI: 97
[11]
  IC50: 3.66 µg/mL
  IC80: 25.6 µg/mL
  MPI: 87
[12]
  IC50: 0.653 µg/mL
  IC80: 4.55 µg/mL
  MPI: 100
[13]
  IC50: > 50 µg/mL
  IC80: > 50 µg/mL
  MPI: 26
[14]
  IC50: > 50 µg/mL
  IC80: > 50 µg/mL
  MPI: 48
[15]
  IC50: 0.386 µg/mL
  IC80: 1.36 µg/mL
  MPI: 100
[16]
  IC50: 3.23 µg/mL
  IC80: 19 µg/mL
  MPI: 93

## N49P9 (antibody)
[6]
  IC50: 0.015 µg/mL
  IC80: 0.034 µg/mL
  MPI: 100
[7]
  IC50: 0.025 µg/mL
  IC80: 0.081 µg/mL
  MPI: 100
[8]
  IC50: 0.032 µg/mL
  IC80: 0.161 µg/mL
  MPI: 100
[9]
  IC50: 0.119 µg/mL
  IC80: 0.575 µg/mL
  MPI: 100
[10]
  IC50: 0.051 µg/mL
  IC80: 0.247 µg/mL
  MPI: 100
[11]
  IC50: 0.727 µg/mL
  IC80: 3.29 µg/mL
  MPI: 100
[12]
  IC50: 0.074 µg/mL
  IC80: 0.244 µg/mL
  MPI: 100
[13]
  IC50: 1.09 µg/mL
  IC80: 5.86 µg/mL
  MPI: 100
[14]
  IC50: 0.04 µg/mL
  IC80: 0.104 µg/mL
  MPI: 100
[15]
  IC50: 0.072 µg/mL
  IC80: 0.2 µg/mL
  MPI: 100
[16]
  IC50: 0.136 µg/mL
  IC80: 0.485 µg/mL
  MPI: 100

## N49P7.2 (antibody)
[17]
  IC50: 0.177 µg/mL
  IC80: 2.5 µg/mL
  MPI: 96
[18]
  IC50: 0.596 µg/mL
  IC80: 2.8 µg/mL
  MPI: 99
[19]
  IC50: 0.237 µg/mL
  IC80: 0.831 µg/mL
  MPI: 100
[20]
  IC50: 48.3 µg/mL
  IC80: > 50 µg/mL
  MPI: 51
[21]
  IC50: 0.033 µg/mL
  IC80: 0.129 µg/mL
  MPI: 100
[22]
  IC50: 0.049 µg/mL
  IC80: 0.192 µg/mL
  MPI: 100
[23]
  IC50: 0.119 µg/mL
  IC80: 0.574 µg/mL
  MPI: 99
[24]
  IC50: 0.03 µg/mL
  IC80: 0.088 µg/mL
  MPI: 100
[25]
  IC50: 0.029 µg/mL
  IC80: 0.159 µg/mL
  MPI: 100
[26]
  IC50: > 50 µg/mL
  IC80: > 50 µg/mL
  MPI: 6
[27]
  IC50: 0.331 µg/mL
  IC80: 1.04 µg/mL
  MPI: 100
[28]
  IC50: 0.137 µg/mL
  IC80: 0.368 µg/mL
  MPI: 100
[29]
  IC50: 0.475 µg/mL
  IC80: 2.14 µg/mL
  MPI: 99
[30]
  IC50: 0.01 µg/mL
  IC80: 0.036 µg/mL
  MPI: 100
[31]
  IC50: > 50 µg/mL
  IC80: > 50 µg/mL
  MPI: 20
[32]
  IC50: 0.398 µg/mL
  IC80: 1.29 µg/mL
  MPI: 100
